Laboratory results as given in US20090118184A1 (UNIVERSITY OF ROCHESTER, published 2009).

Key:
Test in all cases: cell-based or functional assay
[1] = biological target: T1, factor VIIIa A1/A3C1C2 dimer, N1950A (human, UniProt P00451 20-391; P00451 1709-2351)
T1 sequence 1: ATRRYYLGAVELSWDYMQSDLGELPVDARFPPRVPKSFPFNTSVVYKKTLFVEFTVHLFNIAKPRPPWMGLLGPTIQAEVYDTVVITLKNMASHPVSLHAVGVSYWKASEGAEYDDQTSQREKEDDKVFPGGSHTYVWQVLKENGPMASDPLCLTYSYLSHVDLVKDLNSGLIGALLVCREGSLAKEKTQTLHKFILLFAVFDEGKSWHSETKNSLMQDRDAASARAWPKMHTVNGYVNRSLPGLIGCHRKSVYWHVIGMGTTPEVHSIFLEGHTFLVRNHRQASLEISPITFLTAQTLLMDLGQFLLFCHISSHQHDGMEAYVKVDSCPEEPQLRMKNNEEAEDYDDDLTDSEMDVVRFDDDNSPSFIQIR
T1 sequence 2: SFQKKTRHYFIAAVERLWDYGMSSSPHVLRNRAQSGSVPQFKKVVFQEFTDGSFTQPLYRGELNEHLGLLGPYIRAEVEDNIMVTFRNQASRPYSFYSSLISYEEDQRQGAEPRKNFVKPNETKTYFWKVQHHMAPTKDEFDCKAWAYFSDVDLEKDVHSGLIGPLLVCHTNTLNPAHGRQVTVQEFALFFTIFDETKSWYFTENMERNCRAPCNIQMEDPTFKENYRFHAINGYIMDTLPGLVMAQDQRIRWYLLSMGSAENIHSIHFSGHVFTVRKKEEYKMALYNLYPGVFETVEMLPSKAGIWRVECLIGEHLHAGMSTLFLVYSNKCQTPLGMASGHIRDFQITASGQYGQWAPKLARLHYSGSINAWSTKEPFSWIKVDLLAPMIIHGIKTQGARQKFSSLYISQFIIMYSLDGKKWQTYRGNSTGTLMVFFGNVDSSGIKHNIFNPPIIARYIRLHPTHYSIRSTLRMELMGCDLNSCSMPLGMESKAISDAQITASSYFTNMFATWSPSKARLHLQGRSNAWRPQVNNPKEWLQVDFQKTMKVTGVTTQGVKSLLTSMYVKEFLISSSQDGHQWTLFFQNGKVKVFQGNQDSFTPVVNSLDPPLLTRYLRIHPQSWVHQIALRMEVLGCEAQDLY

[2] = biological target: T2, factor VIIIa A1/A3C1C2 dimer, Q1820A (human, UniProt P00451 20-391; P00451 1709-2351)
T2 sequence 1: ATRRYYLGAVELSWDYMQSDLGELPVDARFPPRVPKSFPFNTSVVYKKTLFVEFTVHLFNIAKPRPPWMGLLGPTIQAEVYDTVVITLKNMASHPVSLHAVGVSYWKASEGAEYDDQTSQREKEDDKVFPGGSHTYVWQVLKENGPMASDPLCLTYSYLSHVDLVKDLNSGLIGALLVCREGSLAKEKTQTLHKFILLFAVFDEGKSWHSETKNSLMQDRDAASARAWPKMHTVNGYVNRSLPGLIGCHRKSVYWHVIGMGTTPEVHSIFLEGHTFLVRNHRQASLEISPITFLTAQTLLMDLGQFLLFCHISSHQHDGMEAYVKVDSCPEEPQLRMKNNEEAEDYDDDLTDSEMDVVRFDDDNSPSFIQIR
T2 sequence 2: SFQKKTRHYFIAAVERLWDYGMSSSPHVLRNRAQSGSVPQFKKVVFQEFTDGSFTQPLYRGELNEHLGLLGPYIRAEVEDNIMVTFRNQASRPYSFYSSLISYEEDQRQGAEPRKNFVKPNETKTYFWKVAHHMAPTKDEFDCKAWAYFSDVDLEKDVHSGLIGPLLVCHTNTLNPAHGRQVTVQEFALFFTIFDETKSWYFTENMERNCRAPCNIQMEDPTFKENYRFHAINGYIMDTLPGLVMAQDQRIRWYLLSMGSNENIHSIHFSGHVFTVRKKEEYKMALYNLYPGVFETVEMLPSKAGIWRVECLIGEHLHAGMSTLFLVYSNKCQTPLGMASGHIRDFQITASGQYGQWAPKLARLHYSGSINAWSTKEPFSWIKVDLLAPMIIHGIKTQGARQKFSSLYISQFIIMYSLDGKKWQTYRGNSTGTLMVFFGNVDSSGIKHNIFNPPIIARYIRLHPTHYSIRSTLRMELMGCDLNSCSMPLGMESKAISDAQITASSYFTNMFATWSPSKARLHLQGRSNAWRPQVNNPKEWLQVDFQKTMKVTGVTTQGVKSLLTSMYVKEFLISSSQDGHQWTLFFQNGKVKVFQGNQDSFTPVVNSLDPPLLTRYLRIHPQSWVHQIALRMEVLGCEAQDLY

[3] = biological target: T3, factor VIIIa A1/A3C1C2 dimer, S313A (human, UniProt P00451 20-391; P00451 1709-2351)
T3 chain 1: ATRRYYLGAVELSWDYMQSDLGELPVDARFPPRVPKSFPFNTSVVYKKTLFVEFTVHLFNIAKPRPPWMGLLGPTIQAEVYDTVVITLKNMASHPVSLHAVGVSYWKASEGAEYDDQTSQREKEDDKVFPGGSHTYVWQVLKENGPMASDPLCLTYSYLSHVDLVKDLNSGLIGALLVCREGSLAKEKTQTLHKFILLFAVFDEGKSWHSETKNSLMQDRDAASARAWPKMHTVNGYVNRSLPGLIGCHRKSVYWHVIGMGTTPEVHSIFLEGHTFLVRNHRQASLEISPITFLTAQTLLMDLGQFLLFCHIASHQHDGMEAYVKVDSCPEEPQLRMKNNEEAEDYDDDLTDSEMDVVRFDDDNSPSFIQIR
T3 chain 2: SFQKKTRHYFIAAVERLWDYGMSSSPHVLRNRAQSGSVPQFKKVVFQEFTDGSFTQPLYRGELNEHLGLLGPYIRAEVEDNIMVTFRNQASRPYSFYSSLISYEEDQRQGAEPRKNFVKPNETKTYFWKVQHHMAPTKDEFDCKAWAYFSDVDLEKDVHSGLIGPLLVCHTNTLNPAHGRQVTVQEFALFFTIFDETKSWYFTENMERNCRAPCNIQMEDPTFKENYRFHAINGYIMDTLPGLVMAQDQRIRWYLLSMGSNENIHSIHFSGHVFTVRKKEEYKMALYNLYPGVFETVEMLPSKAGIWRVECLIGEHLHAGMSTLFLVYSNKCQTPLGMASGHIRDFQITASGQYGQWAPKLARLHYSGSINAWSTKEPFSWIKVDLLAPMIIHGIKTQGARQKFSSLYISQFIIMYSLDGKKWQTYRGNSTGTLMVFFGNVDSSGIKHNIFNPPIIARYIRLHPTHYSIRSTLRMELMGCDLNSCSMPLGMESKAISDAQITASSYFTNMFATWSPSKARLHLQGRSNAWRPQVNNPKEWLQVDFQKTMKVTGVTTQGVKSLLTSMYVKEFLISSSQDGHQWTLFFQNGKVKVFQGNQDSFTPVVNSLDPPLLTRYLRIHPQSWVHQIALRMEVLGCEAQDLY

B1: factor VIIIa A2 subunit, wild type (other)
chain: SVAKKHPKTWVHYIAAEEEDWDYAPLVLAPDDRSYKSQYLNNGPQRIGRKYKKVRFMAYTDETFKTREAIQHESGILGPLLYGEVGDTLLIIFKNQASRPYNIYPHGITDVRPLYSRRLPKGVKHLKDFPILPGEIFKYKWTVTVEDGPTKSDPRCLTRYYSSFVNMERDLASGLIGPLLICYKESVDQRGNQIMSDKRNVILFSVFDENRSWYLTENIQRFLPNPAGVQLEDPEFQASNIMHSINGYVFDSLQLSVCLHEVAYWYILSIGAQTDFLSVFFSGYTFKHKMVYEDTLTLFPFSGETVFMSMENPGLWILGCHNSDFRNRGMTALLKVSSCDKNTGDYYEDSYEDISAYLLSKNNAIEPR
- Factor VIIIa decay rate relative to wild type, FIXa (+) [1]: 1.73 relative to wild type
- Factor VIIIa decay rate, FIXa (+) [1]: 0.0195 min⁻¹
- Factor VIIIa decay rate relative to wild type, FIXa (+) [2]: 1.01 relative to wild type
- Factor VIIIa decay rate, FIXa (+) [2]: 0.0114 min⁻¹
- Factor VIIIa decay rate relative to wild type, FIXa (+) [3]: 1.86 relative to wild type
- Factor VIIIa decay rate, FIXa (+) [3]: 0.021 min⁻¹
